Source: publication PMC12578639

Experiments:
[1] = target: ThsB2-His6 (Sau–Thoeris ThsB2 with a C-terminal hexahistidyl tag) (Staphylococcus aureus 08BA02176); experiment: SEC + other: mass photometry; complex assembled from individually purified subunits in the presence of NAD+; Superdex 200 Increase 10/300 GL, 25 mM Tris pH 7.5, 200 mM NaCl, 5% glycerol, 1 mM dithiothreitol; peaks analysed by SDS–PAGE; mass photometry at 100–200 nM
[2] = target: His6-ThsB1 (Sau–Thoeris ThsB1 with an N-terminal hexahistidyl tag) (Staphylococcus aureus 08BA02176); experiment: as above

ThsB2-His6 (Sau–Thoeris ThsB2 with a C-terminal hexahistidyl tag) (natural protein)
stoichiometry N [1]: 2

B1: Major head protein (Mhp) of phage Φ80α, gp47 (natural protein)
chain: ASNNVKPQVFNPDNVMMHEKKDGTLMNEFTTPILQEVMENSKIMQLGKYEPMEGTEKKFTFWADKPGAYWVGEGQKIETSKATWVNATMRAFKLGVILPVTKEFLNYTYSQFFEEMKPMIAEAFYKKFDEAGILNQGNNPFGKSIAQSIEKTNKVIKGDFTQDNIIDLEALLEDDELEANAFISKTQNRSLLRKIVDPETKERIYDRNSDSLDGLPVVNLKSSNLKRGELITGDFDKLIYGIPQLIEYKIDETAQLSTVKNEDGTPVNLFEQDMVALRATMHVALHIADDKAFAKLVPADKRTDSVPGEV
stoichiometry N [2]: 1
